Reference: publication PMC6604206, “Cascade synthesis of uridine-5′-diphosphate glucuronic acid by coupling multiple whole cells expressing hyperthermophilic enzymes” (Microbial Cell Factories, 2019)

Columns and labels:
PiUDH = molecular target: T1, PiUDH (Pyrobaculum islandicum, UniProt A1RUM9); assay: whole-cell conversion, PAMN-HPLC and ESI-MS of UDP-GlcA; assay type: cell-based; settings: BL21-PiUDH whole cells, NAD+ varied 0-1.2 mM, 2.3 mM UDP-Glc, sodium phosphate
T1 construct: gene Pisl_1505; N-terminal His6 tag, codon-optimised gene, pET15b, whole E. coli BL21(DE3) cells
T1 sequence (A1RUM9 entry or part of it): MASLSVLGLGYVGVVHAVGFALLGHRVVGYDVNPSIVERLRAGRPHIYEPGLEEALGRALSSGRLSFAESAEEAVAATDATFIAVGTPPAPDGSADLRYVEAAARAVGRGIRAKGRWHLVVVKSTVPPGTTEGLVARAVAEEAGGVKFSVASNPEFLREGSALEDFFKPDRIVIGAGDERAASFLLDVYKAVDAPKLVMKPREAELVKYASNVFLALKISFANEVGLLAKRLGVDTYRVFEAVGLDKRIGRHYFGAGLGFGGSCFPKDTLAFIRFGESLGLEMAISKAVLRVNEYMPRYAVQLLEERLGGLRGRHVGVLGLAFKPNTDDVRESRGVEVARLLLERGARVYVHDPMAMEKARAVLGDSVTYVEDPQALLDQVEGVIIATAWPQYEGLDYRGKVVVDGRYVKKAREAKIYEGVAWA

purified protein = substrate: O=P(O)(O)O[C@H]1O[C@H](CO)[C@@H](O)[C@H](O)[C@H]1O; assay: purified protein; assay type: biochemical, Sulfurisphaera tokodaii; settings: 3 mM UTP, 20 mM MgCl2, 50 mM Tris-HCl pH 7.5, 80 °C (also measured at 37 °C)

Molecule	whole-cell conversion, PAMN-HPLC and ESI-MS of UDP-GlcA (PiUDH)	Km (purified protein)	Vmax (purified protein)
NC(=O)c1ccc[n+]([C@@H]2O[C@H](COP(=O)(O)OP(=O)(O)OC[C@H]3O[C@@H](n4cnc5c(N)ncnc54)[C@H](O)[C@@H]3O)[C@@H](O)[C@H]2O)c1 [NAD^+]	The synthetic efficiency showed a positive correlation with the concentration of NAD^+	–	–
StUSP (Sulfurisphaera tokodaii str. 7) (protein) MKAFILAAGSGERLEPITHTRPKAFVPILSKPLIEYQIEYLRKCGIRDITVIVSSKNKEYFEKKLKEISIVTQKDDIKGTGAAILSAKFNDEALIIYGDLFFSNEKEICNIITLKENAIIGVKVSNPKDYGVLVLDNQNNLSKIIEKPEIPPSNLINAGIYKLNSDIFTYLDKISISERGELELTDAINLMAKDHRVKVIEYEGYWMDIGKPWNIIDVNKWALDNLVFSQNLGNVEDNVKIKGKVIIEEDAEIKSGTYIEGPVYIGKGSEIGPNSYLRPYTILVEKNKIGASVEVKESVIMEGSKIPHLSYVGDSVIAEDVNFGAGTLIANLRFDEKEVKVNVKGKRISSGRRKLGAFIGGHVRTGINVTILPGVKIGAYARIYPGAVVNRDVGYGEFFKV	–	1.474 ± 0.225 mM	14500 ± 227 µmol/min/mg
